From US20200368208, “Protein Translation Inhibitors and Uses Thereof” (University of Baltimore, Maryland, published 2020)

T1: hnRNP A18 (CIRP), full length, GST fusion (UniProt Q14011 Q14011:1-172)
T1 sequence: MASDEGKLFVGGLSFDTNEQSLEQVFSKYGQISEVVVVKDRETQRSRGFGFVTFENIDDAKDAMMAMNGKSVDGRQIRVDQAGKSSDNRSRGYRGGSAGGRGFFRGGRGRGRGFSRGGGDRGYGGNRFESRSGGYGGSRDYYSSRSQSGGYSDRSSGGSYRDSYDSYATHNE

T2: hnRNP A18 (CIRP), full length, His-tagged (UniProt Q14011 Q14011:1-172)
T2 sequence: T1 sequence

B1: hnRNP A18 motif 1 fluorescein (ssRNA)
RNA: GCAGAUCCAGGGUGGGAUUUUCUUGAGGAAGUUACAAAUAAGCUUGUUACA
B2: hnRNP A18 motif 1 biotin (ssRNA)
RNA: B1 RNA

Key:
[1] = molecular target: T1, hnRNP A18 (CIRP), full length, GST …; assay: FP; 25 C, 30 min; binding competed by small molecules (compound 1 IC50 6.4 uM; compounds 5, 2, 3, 4 IC50 2.9, 15, 13, 39 uM); no Kd given; settings: tags: GST; label: 3' T-fluorescein (position 5 of thymine, 6-carbon spacer)
[2] = molecular target: T2, hnRNP A18 (CIRP), full length, …; assay: EMSA; 1 ug protein in 20 ul; competed by compounds 1-6; settings: tags: His; label: 3' biotin
Method: RNA band shifts were performed according to the manufacturer recommendations (LightShift Chemiluminescent RNA EMSA kit, Thermo Scientific, Rockford, Ill.). Briefly recombinant His-hnRNP A18 or His-hnRNP A1 (1 μg) were incubated with biotinylated RNA (hnRNP A18 motif 1, IRE 28 or 51 nucleotides) in 20 μl and run on native polyacrylamide gels transfer to nylon probes and hybridize with streptavidin HRP antibody.

Binder | binding result [1] | binding result [2]
B1 | binds | –
B2 | – | binds
